Measured values taken from patent US20240166765A1 (ICONIC THERAPEUTICS, published 2024).
Where a chain is given by its changes, count along the chain named. Read-outs that look alike come from different tables or passages of the source.

Assays:
[1] = target: T1, human Tissue Factor on MDA-MB-231 cells (human, UniProt P13726 33-295); experiment: cell-based or functional assay
[2] = target: T1, human Tissue Factor on MDA-MB-231 cells; experiment: cell-based or functional assay; remark: listed apart in the source
[3] = target: T1, human Tissue Factor on MDA-MB-231 cells; experiment: flow cytometry, MDA-MB-231 cells; binding of 20 nM FVII-Fc-Alexa488 (competitor) left at 83 nM Ab
[4] = target: T2, pig TF-His (pig (Sus scrofa)); experiment: SPR (Biacore), antibody captured by anti-human IgG on CM5 chip, pig TF-His in solution, 1:1 model
T2 construct: also called pig TF ECD-His; pTF
T2 chain: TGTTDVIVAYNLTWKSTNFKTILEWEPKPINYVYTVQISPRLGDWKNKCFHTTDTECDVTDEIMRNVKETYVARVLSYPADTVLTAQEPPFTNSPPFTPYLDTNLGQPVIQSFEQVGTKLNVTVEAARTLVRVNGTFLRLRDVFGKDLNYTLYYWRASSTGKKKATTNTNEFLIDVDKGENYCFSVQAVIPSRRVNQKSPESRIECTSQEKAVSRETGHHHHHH

[5] = target: T3, rabbit TF-His (rabbit (Oryctolagus cuniculus), UniProt P24055 33-250); experiment: SPR (Biacore), antibody captured by anti-human IgG on CM5 chip, rabbit TF-His in solution, 1:1 model
T3 construct: also called rabbit TF ECD-His
T3 sequence (P24055 other isoform, or with tags, fused parts or gaps): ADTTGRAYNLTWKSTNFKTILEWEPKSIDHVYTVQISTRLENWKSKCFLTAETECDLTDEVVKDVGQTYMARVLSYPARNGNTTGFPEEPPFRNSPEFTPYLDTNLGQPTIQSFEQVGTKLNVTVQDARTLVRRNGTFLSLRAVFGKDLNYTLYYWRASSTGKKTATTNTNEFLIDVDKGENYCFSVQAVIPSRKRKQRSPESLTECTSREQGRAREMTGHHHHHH

[6] = target: T4, relipidated TF (UniProt P13726 33-295, limits assumed); experiment: cell-based or functional assay
[7] = target: T5, cynomolgus TF ECD-His6 (cynomolgus monkey (Macaca fascicularis)); experiment: BLI (ForteBio Octet)
T5 construct: made in Expi293 cells; also called TF-His; cTF
T5 chain: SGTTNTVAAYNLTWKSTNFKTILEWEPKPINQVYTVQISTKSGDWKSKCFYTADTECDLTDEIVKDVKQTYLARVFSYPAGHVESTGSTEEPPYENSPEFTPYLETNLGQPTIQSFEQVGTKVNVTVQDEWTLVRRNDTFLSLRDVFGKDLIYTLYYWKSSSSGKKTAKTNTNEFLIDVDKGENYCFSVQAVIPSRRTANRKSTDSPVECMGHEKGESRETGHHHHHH

[8] = target: T6, human TF ECD-His6 (human, UniProt P13726 33-251); experiment: BLI (ForteBio Octet)
T6 construct: made in Expi293 cells; the entry holds the ECD with the C-terminal TG-His6; also called TF-His; hTF

[9] = target: T4, relipidated TF; experiment: cell-based or functional assay; remark: listed apart in the source
[10] = target: T4, relipidated TF; experiment: cell-based or functional assay; remark: listed apart in the source
[11] = target: T4, relipidated TF; experiment: cell-based or functional assay; remark: listed apart in the source
[12] = target: T5, cynomolgus TF ECD-His6; experiment: SPR (Biacore), antibody on chip, TF-His titrated
[13] = target: T6, human TF ECD-His6; experiment: SPR (Biacore), antibody on chip, TF-His titrated
[14] = target: rTF (rat TF) on HEK293 cells (rat, UniProt P42533 29-252); experiment: live cell staining of transfected HEK293, flow cytometry
rTF (rat TF) on HEK293 cells, sequence (P42533 29-252): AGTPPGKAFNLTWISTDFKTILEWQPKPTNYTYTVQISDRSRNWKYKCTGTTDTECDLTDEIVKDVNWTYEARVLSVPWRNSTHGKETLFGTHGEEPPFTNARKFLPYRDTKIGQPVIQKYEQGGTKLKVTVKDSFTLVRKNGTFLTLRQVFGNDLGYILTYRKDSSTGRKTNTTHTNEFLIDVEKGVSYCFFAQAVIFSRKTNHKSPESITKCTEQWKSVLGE

B1: 25G (antibody, human IgG1, kappa, V domains shown)
VH: QVQLVQSGAEVKKPGASVKVSCKASGYTFRSYGISWVRQAPGQGLEWMGWVAPYNGNTNYAQKLQGRVTMTTDTSTSTAYMELRSLRSDDTAVYYCARDAGTYSPYGYGMDVWGQGTTVTVSS
VL: DIQMTQSPSTLSASVGDRVTITCRASQSISSWLAWYQQKPGKAPKLLIYKASSLESGVPSRFSGSGSGTEFTLTISSLQPDDFATYYCQQFQSLPPFTFGGGTKVEIKR
notes: Human anti-TF IgG1
% FXa, 12.5 nM Ab [1]: 99%
% FXa, 25 nM Ab [1]: 109%
% FXa, 100 nM Ab [1]: 116%
% IL8, 2.56 nM Ab [2]: 60%
% IL8, 6.4 nM Ab [2]: 22%
% IL8, 16 nM Ab [2]: 16%
% IL8, 40 nM Ab [2]: 10%
% IL8, 100 nM Ab [2]: 9%
% FVIIa [3]: 93%

B2: 25G (antibody, human IgG1, kappa, V domains shown)
VH: B1 VH
VL: B1 VL
notes: Human IgG1; also called antibody 25G
Kd [4]: 26 nM
Kd [5]: 75.5 nM

B3: 25A (antibody, human IgG1, V domains shown)
VH: B1 VH with R30D, S31V, V51I, Y106F
VL: DIQMTQSPSTLSASVGDRVTITCRASQSISSWLAWYQQKPGKAPKLLIYKASSLESGVPSRFSGSGSGTEFTLTISSLQPDDFATYYCQQFQSLPPFTFGGGTKVEIK
notes: Human IgG1; also called antibody 25A
Kd [4]: 18.7 nM
Kd [5]: 50.5 nM

B4: 25G1 (antibody, human IgG1, kappa, V domains shown)
VH: B1 VH with N55S
VL: B1 VL with Q27H, S30D, S53Y, Q90L
notes: Human IgG1; also called antibody 25G1
Kd [4]: 2.6 nM
Kd [5]: 3.6 nM

B5: 25A5-T (antibody, human IgG1, kappa, V domains shown)
VH: B1 VH with R30D, S31A, V51I, N55S, Y106F
VL: B1 VL with Q27E, S31N, S52Y, S56Y, S93K
notes: Human IgG1
Kd [4]: 4.5 nM
Kd [5]: 5.4 nM

B6: 25G9 (antibody, human IgG1, kappa, V domains shown)
VH: B1 VH with N55S
VL: B1 VL with R24Q, S30D, K50S, S53Y, Q90R
notes: Human IgG1; also called antibody 25G9
Kd [4]: 3.3 nM
Kd [5]: 4.2 nM

B7: 25A5 (antibody, human IgG1, kappa, V domains shown)
VH: B1 VH with R30D, S31V, V51I, N55S, Y106F
VL: B1 VL with Q27E, S31N, S52Y, S56Y, S93K
notes: Human IgG1; also called antibody 25A5
Kd [4]: 5.2 nM
Kd [5]: 5.4 nM

B8: 43D7 (antibody, human IgG1, kappa, V domains shown)
VH: QVQLQQWGAGLLKPSETLSLTCAVYGGSLSGYYWSWIRQPPGKGLEWIGEIGASGSTRYNPSLKSRVTISVDTSKNQFSLKLSSVTAADTAVYYCARDTPYYYEGGYYYYMDVWGKGTTVTVSS
VL: EIVLTQSPGTLSLSPGERATLSCRASDSVDSSYLAWYQQKPGQAPRLLIYGAFSRANGIPDRFSGSGSGTDFTLTISRLEPEDFAVYYCQQAGVVPYTFGGGTKVEIKR
notes: Human IgG1; also called antibody 43D7
Kd [4]: 8.8 nM
Kd [5]: 6.8 nM

B9: 43D8 (antibody, human IgG1, kappa, V domains shown)
VH: B8 VH
VL: B8 VL with D27Q, D30S, Y33F, F53Y, N57T
notes: Human IgG1; also called antibody 43D8; 43D8 mAb
Kd [4]: 19.2 nM
Kd [5]: 7.7 nM

B10: 39A (antibody, human IgG1, V domains shown)
VH: QVQLVQSGAEVKKPGSSVKVSCKASGGTFSSNAIGWVRQAPGQGLEWMGSIIPIIGFANYAQKFQGRVTITADESTSTAYMELSSLRSEDTAVYYCARDSGYYYGASSFGMDVWGQGTTVTVSS
VL: EIVMTQSPATLSVSPGERATLSCRASQSVSSNLAWYQQKPGQAPRLLIYGASTRATGIPARFSGSGSGTEFTLTISSLQSEDFAVYYCEQYNNLPLTFGGGTKVEIK
notes: human IgG1
TGA without pre-incubation, 10 nM Ab: % ETP [6]: 55%
TGA without pre-incubation, 10 nM Ab: % Peak IIa [6]: 20%
TGA without pre-incubation, 10 nM Ab: ETP [6]: 1330 nM·min
TGA without pre-incubation, 10 nM Ab: Lag Time [6]: 12.1 min
TGA without pre-incubation, 10 nM Ab: Peak IIa [6]: 82 nM
TGA without pre-incubation, 10 nM Ab: ttPeak [6]: 19.6 min
TGA without pre-incubation, 50 nM Ab: % Peak IIa [6]: 7%
TGA without pre-incubation, 50 nM Ab: Lag Time [6]: 30.5 min
TGA without pre-incubation, 50 nM Ab: Peak IIa [6]: 30 nM
TGA without pre-incubation, 50 nM Ab: ttPeak [6]: 40 min
TGA without pre-incubation, 100 nM Ab: % Peak IIa [6]: 6%
TGA without pre-incubation, 100 nM Ab: Lag Time [6]: 28.9 min
TGA without pre-incubation, 100 nM Ab: Peak IIa [6]: 26 nM
TGA without pre-incubation, 100 nM Ab: ttPeak [6]: 40.1 min
Kd [7]: 0.57 nM
Kd [8]: 0.83 nM
TGA without pre-incubation, 10 nM Ab: % ETP [9]: 58%
TGA without pre-incubation, 10 nM Ab: % Peak IIa [9]: 24%
TGA without pre-incubation, 10 nM Ab: ETP [9]: 1330 nM·min
TGA without pre-incubation, 10 nM Ab: Lag Time [9]: 12.4 min
TGA without pre-incubation, 10 nM Ab: Peak IIa [9]: 84 nM
TGA without pre-incubation, 10 nM Ab: ttPeak [9]: 20.7 min
TGA without pre-incubation, 50 nM Ab: % Peak IIa [9]: 8%
TGA without pre-incubation, 50 nM Ab: Lag Time [9]: 33.1 min
TGA without pre-incubation, 50 nM Ab: Peak IIa [9]: 29 nM
TGA without pre-incubation, 50 nM Ab: ttPeak [9]: 43.2 min
TGA without pre-incubation, 100 nM Ab: % Peak IIa [9]: 6%
TGA without pre-incubation, 100 nM Ab: Lag Time [9]: 38.1 min
TGA without pre-incubation, 100 nM Ab: Peak IIa [9]: 22 nM
TGA without pre-incubation, 100 nM Ab: ttPeak [9]: 48.3 min
decrease of peak IIa concentration, TGA with 10 min pre-incubation, 100 nM Ab [10]: 93%
decrease of peak IIa concentration, TGA without pre-incubation, 100 nM Ab [10]: 91%
TGA with 10 min pre-incubation, 10 nM Ab: % Peak IIa [11]: 11%
TGA with 10 min pre-incubation, 10 nM Ab: Lag Time [11]: 20.9 min
TGA with 10 min pre-incubation, 10 nM Ab: Peak IIa [11]: 30 nM
TGA with 10 min pre-incubation, 10 nM Ab: ttPeak [11]: 30.8 min
TGA with 10 min pre-incubation, 50 nM Ab: % Peak IIa [11]: 8%
TGA with 10 min pre-incubation, 50 nM Ab: Lag Time [11]: 29 min
TGA with 10 min pre-incubation, 50 nM Ab: Peak IIa [11]: 21 nM
TGA with 10 min pre-incubation, 50 nM Ab: ttPeak [11]: 39.7 min
TGA with 10 min pre-incubation, 100 nM Ab: % Peak IIa [11]: 6%
TGA with 10 min pre-incubation, 100 nM Ab: Lag Time [11]: 32.1 min
TGA with 10 min pre-incubation, 100 nM Ab: Peak IIa [11]: 17 nM
TGA with 10 min pre-incubation, 100 nM Ab: ttPeak [11]: 43.2 min
Kd [12]: 0.08 nM
Kd [13]: 0.09 nM
binding result [14]: no binding (tested: 15 µg/ml (100 nM))
